# Laboratory results published in patent publication US20220349876A1, “USE OF DKK1 INHIBITOR IN PREVENTION AND/OR TREATMENT OF TUMOR CACHEXIA AND DISEASES ASSOCIATED WITH DIABETES” (SHANGHAI DONGTSU BIOSCIENCES CO., LTD., priority 2019, published 2022).
# Entries after “also recorded” stand apart in the source; their conditions may differ.
# B1: LRP6N: soluble protein of the extracellular segment of LRP6 (LRP6 ectodomain) (protein, UniProt O75581 20-1370, looked up)
# extracellular domain: APLLLYANRRDLRLVDATNGKENATIVVGGLEDAAAVDFVFSHGLIYWSDVSEEAIKRTEFNKTESVQNVVVSGLLSPDGLACDWLGEKLYWTDSETNRIEVSNLDGSLRKVLFWQELDQPRAIALDPSSGFMYWTDWGEVPKIERAGMDGSSRFIIINSEIYWPNGLTLDYEEQKLYWADAKLNFIHKSNLDGTNRQAVVKGSLPHPFALTLFEDILYWTDWSTHSILACNKYTGEGLREIHSDIFSPMDIHAFSQQRQPNATNPCGIDNGGCSHLCLMSPVKPFYQCACPTGVKLLENGKTCKDGATELLLLARRTDLRRISLDTPDFTDIVLQLEDIRHAIAIDYDPVEGYIYWTDDEVRAIRRSFIDGSGSQFVVTAQIAHPDGIAVDWVARNLYWTDTGTDRIEVTRLNGTMRKILISEDLEEPRAIVLDPMVGYMYWTDWGEIPKIERAALDGSDRVVLVNTSLGWPNGLALDYDEGKIYWGDAKTDKIEVMNTDGTGRRVLVEDKIPHIFGFTLLGDYVYWTDWQRRSIERVHKRSAEREVIIDQLPDLMGLKATNVHRVIGSNPCAEENGGCSHLCLYRPQGLRCACPIGFELISDMKTCIVPEAFLLFSRRADIRRISLETNNNNVAIPLTGVKEASALDFDVTDNRIYWTDISLKTISRAFMNGSALEHVVEFGLDYPEGMAVDWLGKNLYWADTGTNRIEVSKLDGQHRQVLVWKDLDSPRALALDPAEGFMYWTEWGGKPKIDRAAMDGSERTTLVPNVGRANGLTIDYAKRRLYWTDLDTNLIESSNMLGLNREVIADDLPHPFGLTQYQDYIYWTDWSRRSIERANKTSGQNRTIIQGHLDYVMDILVFHSSRQSGWNECASSNGHCSHLCLAVPVGGFVCGCPAHYSLNADNRTCSAPTTFLLFSQKSAINRMVIDEQQSPDIILPIHSLRNVRAIDYDPLDKQLYWIDSRQNMIRKAQEDGSQGFTVVVSSVPSQNLEIQPYDLSIDIYSRYIYWTCEATNVINVTRLDGRSVGVVLKGEQDRPRAVVVNPEKGYMYFTNLQERSPKIERAALDGTEREVLFFSGLSKPIALALDSRLGKLFWADSDLRRIESSDLSGANRIVLEDSNILQPVGLTVFENWLYWIDKQQQMIEKIDMTGREGRTKVQARIAQLSDIHAVKELNLQEYRQHPCAQDNGGCSHICLVKGDGTTRCSCPMHLVLLQDELSCGEPPTCSPQQFTCFTGEIDCIPVAWRCDGFTECEDHSDELNCPVCSESQFQCASGQCIDGALRCNGDANCQDKSDEKNCEVLCLIDQFRCANGQCIGKHKKCDHNVDCSDKSDELDCYPTEEPAPQA
# modifications: extracellular domain
# B2: IGFBP4/H95P: recombinant mutant IGFBP4/H95P protein, which lost its IGF-binding ability, can bind to LRP6 on the membrane and prevent Dkk1 signaling (protein, UniProt P22692 22-258, looked up, variant H95P)
# Insulin-like growth …: DEAIHCPPCSEEKLARCRPPVGCEELVREPGCGCCATCALGLGMPCGVYTPRCGSGLRCYPPRGVEKPLHTLMPGQGVCMELAEIEAIQESLQPSDKDEGDHPNNSFSPCSAHDRRCLQKHFAKIRDRSTSGGKMKVNGAPREDARPVPQGSCQSELHRALERLAASQSRTHEDLYIIPIPNCDRNGNFHPKQCHPALDGQRGKCWCVDRKTGVKLPGGLEPKGELDCHQLADSFRE
# Experiments:
# [1] = test system: HUVEC cells; experiment: γH2AX DNA damage response in HUVEC cells (Western blot); assay type: cell-based
# Procedure: (2) The transfection system of a 3.5 cm petri dish was prepared as follows: 1 μl of siRNA Oligo/Red (concentration of the original solution was 20 μM) was added to an EP tube containing 250 μl of pure Opti-MEM and mixed, and 1.5 μl of RNAiMAX (transfection Reagent) was added to the flow tube containing 250 μl of pure Opti-MEM and mixed, and then all the liquid in the EP tube was added to the flow tube and mixed, and allowed to stand at room temperature for 15 min.
# (3) The prepared transfection system was added to a 3.5 cm culture dish, and the cells were cultured for 24-48 h, then the samples were collected and the total cell protein was extracted, and the knockdown effect of the gene was identified by Western Blotting.
# (3) Add 150 μl of total protein lysate to each cell sample to make the lysate fully contact with the cells, scrape off the cell lysate with a scraper, collect it into a pre-cooled EP tube, and take an ice bath for 15 min.
# (§1) Protein electrophoresis gels are double-layered gels, including an upper stacking gel and a lower separating gel. The concentration of the stacking gel is 5%, and the concentration of the separating gel is determined according to the molecular weight of the target protein. In this study, large molecular weight proteins (LRP5/6, β-catenin, β-arrestin1/2) used 8%-5% double-layer gel, and small molecular weight proteins (γH2AX, p53, p21, Bcl-2, Bax, Cleaved Caspase-3) used 12%-5% double-layer gel. In addition, the number of wells (10 wells or 15 wells) and thickness (1 mm or 1.5 mm) of the preparation gel were selected according to the number and volume of protein samples loaded. The gel formulation is shown in the experimental material section, and the preparation steps are as follows: […]
# [2] = test system: β-arrestin1/2; experiment: β-arrestin1/2 translocation in HUVEC cells (Western blot); assay type: cell-based; conditions: BIM-46187 pretreatment 1 μM for 30 min
# Procedure: (5) Add 100 μl (cell) or 200 μl (tissue) A solution to each sample, and resuspend the cell pellet with a pipette to completely disperse the pellet. The tissue pellet should be fully homogenized on ice with a homogenizer, and the ice bath should be used for 15 min.
# (10) Add 50 μl (cells) or 100 μl (tissue) B solution to each sample, resuspend the pellet in Vortex at the highest speed for 10 s, ice bath for 10 min, and repeat twice to fully extract membrane proteins.
# as §1
# [3] = test system: wild-type mice heart; experiment: Local injection of Dkk1 protein into the heart combined with MDC or BIM-46187; assay type: in vivo, mouse
# Procedure: In the experiment of local injection of Dkk1 purified protein into the heart combined with MDC intervention, 10-week-old wild-type male mice were selected, the left chest was depilated, and intraperitoneal injection of MDC (diluted in sterile PBS, 10 mg/kg) or the corresponding volume of DMSO (diluted in sterile PBS) and injected at the same time every day thereafter. After 1 h of MDC intervention, cardiac Dkk1 protein injection was performed. The mice were given continuous inhalation anesthesia with 1% isoflurane and oxygenated with a ventilator, and then the fourth intercostal space near the sternum was opened to expose the heart. Using a 200 μl microsyringe, Dkk1 (10 μg of Dkk1 per heart, dissolved in 30 μl PBS) or an equal volume of PBS was injected locally at three sites in the heart. Of these, two sites are on the border around the left ventricle, and one site enters the myocardium of the left ventricle. After the injection, the wound was sutured, the anesthesia was removed, and the mice were awake. After MDC was continuously intervened for 2 days, the mice were anesthetized and the materials were collected.
# In addition to injecting Dkk1 protein alone into the heart, we also need to perform experiments of local injection of Dkk1 combined with BIM-46187 into mouse hearts. According to the experimental grouping, it was divided into cardiac injections of four different solutions, including PBS, Dkk1, BIM-46187, and a mixture of Dkk1 and BIM-46187. The dosage of Dkk1 per heart is 10 μg, and the dosage of BIM-46187 is 2.4 ng, diluted with 30 μl PBS and then injected into the heart. The specific operation steps are the same as above. After the injection, the wound was sutured, the anesthesia was removed, and the mice were awake. Two days after the injection, the mice were anesthetized and the materials were collected.
# [4] = test system: CT26 tumor-bearing mice; experiment: Tumor cachexia in CT26 tumor-bearing mice: tumor-free body weight, muscle weight, muscle membrane proteins; assay type: in vivo, mouse
# [5] = test system: LRP6 and Kremen2; experiment: Intramuscular injection of Dkk1, Western blot of membrane LRP6 and Kremen2; assay type: in vivo, mouse; conditions: simultaneous injection with Dkk1
# Procedure: Wild-type mice and β-arrestin2+/−KO mice were injected into the left quadriceps (0.25 mg/kg) and an equal volume of PBS was injected into the right leg as controls. MDC (10 mg/kg), IGFBP-4/H95P (1.7 mg/kg) or PBS were injected in combination with Dkk1 as a control to observe the effects of drugs on Dkk1-induced signal transduction. After 48 hours, the mice were sacrificed, and the left and right quadriceps were taken to measure the […].
# Membrane proteins were extracted according to the instructions of Membrane Protein Extraction Kit (Sangon Biotech, China). Western blot analysis omitted. Antibodies for WB analysis were purchased from Cell Signaling Technology and Proteintech.
molecule,measurement,setting,value
N[C@@H](CSSC[C@H](N)C(=O)N1CCn2cc(-c3ccccc3)nc2[C@@H]1CC1CCCCC1)C(=O)N1CCn2cc(-c3ccccc3)nc2[C@@H]1CC1CCCCC1 [BIM-46187],Dkk1-induced γH2AX activation,"[1]; BIM-46187 pretreatment 1 μM, 30 min",inhibited
same,Dkk1-induced translocation of β-arrestin1/2,[2],able to prevent Dkk1-induced translocation of β-arrestin1/2
same,Dkk1-induced cardiac β-arrestin1/2 translocation,[3]; Dkk1 intracardiac injection with MDC or BIM-46187,inhibited; also recorded: significantly prevent Dkk1 direct endocytosis of LRP5/6-induced cardiac β-arrestin1/2 translocation changes
same,"Dkk1-induced cardiac changes (LRP5/6, γH2AX, p53, p21)",[3]; Dkk1 intracardiac injection with MDC pretreatment or combined with BIM-46187,effectively inhibit Dkk1-induced cardiac injury; also recorded: significantly prevent
B1,γH2AX signaling enhanced by H2O2 in the presence of Dkk1,[1]; Dkk1 then H2O2 50 μM,significantly attenuated
same,H2O2-activated γH2AX signaling in control and β-catenin-knockdown cells,[1]; H2O2 50 μM,no effect
same,γH2AX signaling in MESD knockdown cells enhanced by H2O2,"[1]; H2O2 50 μM, LRP6N pretreatment",significantly attenuats this change
same,γH2AX signaling of LRP5/6 knockdown cells further activated by H2O2,"[1]; H2O2 50 μM, LRP6N pretreatment",significantly attenuated
same,H2O2-induced γH2AX activation,"[1]; H2O2 50 μM, without Dkk1",does not prevent H2O2-induced γH2AX activation
same,γH2AX upregulation induced by knockdown of LRP5/6,[1]; LRP6N pre-added to culture medium,reverses cellular DNA damage induced by knockdown of LRP5/6; also recorded: significantly attenuated
same,γH2AX response by the substance itself,"[1]; no Dkk1, no H2O2",does not elicit γH2AX responses
same,Dkk1-induced γH2AX activation,[1]; pretreatment with MDC or LRP6N protein,inhibits Dkk1-induced γH2AX activation
B2,loss of body weight and muscle weight,[4]; listed as IGFBP4,reverse tumor-induced loss of tumor-free body weight and muscle atrophy
same,loss of body weight and muscle weight,[4]; listed as IGFBP-4/H95P,completely prevents the decrease in body weight and muscle weight
same,Dkk1-induced endocytosis / downregulation of membrane LRP6 and Kremen2,[5],inhibit downregulation of membrane LRP6 expression induced by Dkk1
